From patent publication US20220118053A1 (ASCENDIS PHARMA GROWTH DISORDERS A S, published 2022)
Bridges are numbered along the chain shown (N, C = ends). Where no end group is shown, it is not given here.

Target: T1, NPR-B receptor (UniProt P20594 23-1047, limits assumed)
T1 sequence (looked up): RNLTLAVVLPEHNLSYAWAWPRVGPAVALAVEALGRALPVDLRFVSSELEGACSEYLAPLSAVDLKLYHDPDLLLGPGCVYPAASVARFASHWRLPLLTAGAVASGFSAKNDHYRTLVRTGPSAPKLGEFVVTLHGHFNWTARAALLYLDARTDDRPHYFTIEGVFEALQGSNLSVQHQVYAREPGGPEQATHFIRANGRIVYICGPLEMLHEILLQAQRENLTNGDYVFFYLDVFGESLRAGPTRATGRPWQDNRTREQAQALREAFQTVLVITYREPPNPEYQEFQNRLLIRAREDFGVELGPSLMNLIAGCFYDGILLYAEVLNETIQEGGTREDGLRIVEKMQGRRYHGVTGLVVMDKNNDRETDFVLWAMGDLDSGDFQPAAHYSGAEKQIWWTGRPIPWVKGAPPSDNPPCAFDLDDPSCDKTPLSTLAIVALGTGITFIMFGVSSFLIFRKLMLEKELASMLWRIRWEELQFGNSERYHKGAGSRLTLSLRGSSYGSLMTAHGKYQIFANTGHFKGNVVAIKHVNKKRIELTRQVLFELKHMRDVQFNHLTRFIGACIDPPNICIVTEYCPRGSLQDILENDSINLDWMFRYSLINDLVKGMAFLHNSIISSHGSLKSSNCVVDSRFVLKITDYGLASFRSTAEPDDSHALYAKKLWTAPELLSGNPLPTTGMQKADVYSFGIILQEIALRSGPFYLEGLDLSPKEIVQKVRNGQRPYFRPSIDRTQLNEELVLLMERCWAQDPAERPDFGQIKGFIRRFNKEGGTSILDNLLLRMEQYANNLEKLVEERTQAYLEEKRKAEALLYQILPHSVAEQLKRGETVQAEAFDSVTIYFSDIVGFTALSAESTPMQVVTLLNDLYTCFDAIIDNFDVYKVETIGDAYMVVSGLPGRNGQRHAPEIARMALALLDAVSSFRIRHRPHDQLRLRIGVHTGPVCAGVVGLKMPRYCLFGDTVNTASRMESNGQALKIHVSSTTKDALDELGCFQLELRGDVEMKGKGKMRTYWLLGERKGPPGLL
Test: cell-based or functional assay

LQEHPNARKYKGANKKGLSKGCFGLKLDRIGSMSGLGC (disulfide 22-38) [CNP-38]
Biopotency (%), F13, T0; cGMP stimulation in NPR-B overexpressing Hek293 cells, relative to CNP-38 reference standard: 93%
Biopotency (%), F13, T3M, 5° C.; cGMP stimulation in NPR-B overexpressing Hek293 cells, relative to CNP-38 reference standard: 107%
Biopotency (%), F13, T3M, 25° C.; cGMP stimulation in NPR-B overexpressing Hek293 cells, relative to CNP-38 reference standard: 91%
Biopotency (%), F13, T3M, 30° C.; cGMP stimulation in NPR-B overexpressing Hek293 cells, relative to CNP-38 reference standard: 96%
Biopotency (%), F13, T3M, 40° C.; cGMP stimulation in NPR-B overexpressing Hek293 cells, relative to CNP-38 reference standard: 94%
Biopotency (%), F13, T6M 25° C.; cGMP stimulation in NPR-B overexpressing Hek293 cells, relative to CNP-38 reference standard: 106%
Biopotency (%), F13, T6M, 5° C.; cGMP stimulation in NPR-B overexpressing Hek293 cells, relative to CNP-38 reference standard: 95%
Biopotency (%), F13, T6M, 30° C.; cGMP stimulation in NPR-B overexpressing Hek293 cells, relative to CNP-38 reference standard: 89%
